The values that follow come from patent publication US11618777B2, “Method of manufacturing membrane protein and utilization thereof” (priority 2015, dated 2023).

In data set [1] the target is C-terminal fragment (C-CPE) of Clostridium perfringens enterotoxin (CPE) (Clostridium perfringens, UniProt P01558). The note with it: read-out: KD value.
In data set [2] the target is T1, human claudin-4 (residue: 1 to 183) synthesized in a cell-free system (human, UniProt O14493 1-183).
T1 sequence: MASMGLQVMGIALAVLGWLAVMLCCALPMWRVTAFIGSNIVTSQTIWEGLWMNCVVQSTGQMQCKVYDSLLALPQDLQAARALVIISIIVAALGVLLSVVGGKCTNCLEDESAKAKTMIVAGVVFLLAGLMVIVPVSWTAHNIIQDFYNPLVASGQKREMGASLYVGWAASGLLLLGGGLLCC

Data set [3] can be described thus: GlcT enzyme activity (specific activity) of cell-free synthesized human GlcT. The following applies: GlcT produced by liposome method with porcine brain lipid mixture.

B1: human claudin-4: Human claudin-4 (residue 1 to 183), 4-transmembrane tight junction protein produced by the cell-free lipid-detergent method (protein, UniProt O14493 1-183, looked up, fragment)
chain: MASMGLQVMGIALAVLGWLAVMLCCALPMWRVTAFIGSNIVTSQTIWEGLWMNCVVQSTGQMQCKVYDSLLALPQDLQAARALVIISIIVAALGVLLSVVGGKCTNCLEDESAKAKTMIVAGVVFLLAGLMVIVPVSWTAHNIIQDFYNPLVASGQKREMGASLYVGWAASGLLLLGGGLLCC
In general, Kd refers to the constant that tells how readily two partners part at equilibrium. B1: the Kd in data set [1] was 3.4 nM.

B2: GST tag-added C-CPE (ligand)
chain: RCVLTVPSTDIEKEILDLAAATERLNLTDALNSNPAGNLYDWRSSNSYPWTQKLNLHLTITATGQKYRILASKIVDFNIYSNNFNNLVKLEQSLGDGVKDHYVDISLDAGQYVLVMKANSSYSGNYPYSILFQKF
Consider B2, for which the Kd in data set [2] came out at 3.4 nM.

B3: GlcT: Human glucosylceramide synthase, estimated 3-transmembrane enzyme, produced in a cell-free system with lipids (protein, UniProt Q16739 1-394, looked up)
Ceramide glucosyltransferase: MALLDLALEGMAVFGFVLFLVLWLMHFMAIIYTRLHLNKKATDKQPYSKLPGVSLLKPLKGVDPNLINNLETFFELDYPKYEVLLCVQDHDDPAIDVCKKLLGKYPNVDARLFIGGKKVGINPKINNLMPGYEVAKYDLIWICDSGIRVIPDTLTDMVNQMTEKVGLVHGLPYVADRQGFAATLEQVYFGTSHPRYYISANVTGFKCVTGMSCLMRKDVLDQAGGLIAFAQYIAEDYFMAKAIADRGWRFAMSTQVAMQNSGSYSISQFQSRMIRWTKLRINMLPATIICEPISECFVASLIIGWAAHHVFRWDIMVFFMCHCLAWFIFDYIQLRGVQGGTLCFSKLDYAVAWFIRESMTIYIFLSALWDPTISWRTGRYRLRCGGTAEEILDV
As for B3, the “specificity (specific activity) relative to sample produced with GalCer (5%), cholesterol (5%), egg PC (90%)” value in data set [3] was “approximately 2.7 times higher”.
